Test results from publication PMC2796841 (Integrative biology : quantitative biosciences from nano to …, 2009).

Tested on: tumor
Details: mouse, in vivo

Substance: PAMAM-e9-xPLGLAG-r9-k(Cy5)
- time of maximal contrast after injection: 48 h
